Laboratory results: the supplement of paper PMC7877785
± gives the uncertainty stated by the source.

Experiment: self-splicing fitness, log relative to wild type (ln ratio); higher = more splicing; Tetrahymena group I intron in knt gene, E. coli kanamycin selection, DiMSum; sequences stand for … in CUCUCU…GGAGGGAAAAGUUAUCAGGCAUGCACCUGGUAGCUAGUCUUUAAACCAAUAGAUUGCAUCGGUUUAAAAGGCAAGACCGUCAAAUUGCGGGAAAGGGGUCAACAGCCGUUCAGUACCAAGUCUCAGGGGAAACUUUGAGAUGGCCUUGCAAAGGGUAUGGUAAUAAGCUGACGGACAUGGUCCUAACCACGCAGCCAAGUCCUAAGUCAACAGAUCUUCUGUUGAUAUGGAUGCAGUUCACAGACUAAAUGUCGGUCGGGGAAGAUGUAUUCUUCUCAUAAGAUAUAGUCGGACCUCUCCUUAAUGGGAGCUAGCGGAUGAAGUGAUGCAACACUGGAGCCGCUGGGAACUAAUUUGUAUGCGAAAGUAUAUUGAUUAGUUUUGGAGUACUCGUGGUCG
How it was run: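 The eight P1ex-region nucleotides of an intron in the knt kanamycin-resistance gene on pET-22b(+) were all randomised and the library put into E. coli BL21(DE3). Six replicate transformations were grown overnight at 37°C or 30°C on LB agar with or without 25 μg/mL kanamycin, together with 100 μg/mL carbenicillin, 50 μM IPTG and 0.2% rhamnose. Colonies were pooled and amplicon-sequenced on an Illumina HiSeq 2500. Fitness from DiMSum is the error-weighted combination of wild-type-normalised replicate fold changes, kanamycin over none.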

Row | Sequence | self-splicing fitness (ln) (30 °C) | self-splicing fitness (ln) (37 °C)
1 | UUACAGCAAUAUUACGUCCU | -2.11 ± 0.1 | -0.74 ± 0.089
2 | UGCUAGCAAUAUUACGACGA | -0.229 ± 0.13 | 0.191 ± 0.12
3 | ACGCAGCAAUAUUACGGACA | -1.29 ± 0.13 | -1.13 ± 0.14
4 | GCGCAGCAAUAUUACGUUGG | -1.81 ± 0.06 | -1.76 ± 0.097
5 | GCAUAGCAAUAUUACGGACU | 0.021 ± 0.15 | -0.121 ± 0.15
6 | AGCCAGCAAUAUUACGGUUA | -0.713 ± 0.13 | -0.226 ± 0.11
7 | GUUUAGCAAUAUUACGAGAC | -3.35 ± 0.49 | -2.08 ± 0.32
8 | CUACAGCAAUAUUACGCUAG | -3.58 ± 0.18 | -2.36 ± 0.23
9 | CGGCAGCAAUAUUACGUAAA | -2.71 ± 0.12 | -1.84 ± 0.12
10 | CAGCAGCAAUAUUACGAGGC | -3.04 ± 0.17 | -2.92 ± 0.2
11 | CACAAGCAAUAUUACGACAU | -3.32 ± 0.017 | -1.99 ± 0.033
12 | GUAAAGCAAUAUUACGCCAC |  | -1.86 ± 0.24
13 | UCGCAGCAAUAUUACGCUUC | -1.8 ± 0.34 | -1.68 ± 0.44
14 | ACGAAGCAAUAUUACGAACA | -1.62 ± 0.13 | -0.229 ± 0.11
15 | GGGUAGCAAUAUUACGCAGU | -1.34 ± 0.16 | -1.02 ± 0.11
16 | CGGUAGCAAUAUUACGUUAG | 0.11 ± 0.074 | 0.0358 ± 0.097
17 | UAUGAGCAAUAUUACGCUGU | -3.79 ± 0.25 | -3.21 ± 0.24
18 | AAGAAGCAAUAUUACGGUUC | -2.86 ± 0.14 | -0.743 ± 0.15
19 | CGGUAGCAAUAUUACGACCC | 0.488 ± 0.48 | -1.29 ± 0.44
20 | CGUAAGCAAUAUUACGCCCG | -1.93 ± 0.18 | -0.621 ± 0.23
21 | UCGCAGCAAUAUUACGCUAG | -4.54 ± 0.25 | -2.18 ± 0.2
22 | GCCUAGCAAUAUUACGCGGC | -3.58 ± 0.35 | -2 ± 0.28
23 | GCCGAGCAAUAUUACGUAGG | -3.39 ± 0.21 | -0.729 ± 0.25
24 | GUGAAGCAAUAUUACGACUC | 0.243 ± 0.26 | -0.398 ± 0.28

Row | Sequence | self-splicing fitness (ln) (30 °C) | self-splicing fitness (ln) (37 °C)
25 | UCUGAGCAAUAUUACGAUCU | -3.4 ± 0.35 | -2.52 ± 0.21
26 | AAUAAGCAAUAUUACGUUGG | -2.74 ± 0.28 | -3 ± 0.38
27 | ACGUAGCAAUAUUACGCCGC | -3.7 ± 0.46 | 
28 | GAAAAGCAAUAUUACGACGU | 0.263 ± 0.088 | 0.769 ± 0.099
29 | GGAAAGCAAUAUUACGAAUU | -1.96 ± 0.16 | -1.4 ± 0.12
30 | ACAUAGCAAUAUUACGGUCG | -1.62 ± 0.088 | -0.223 ± 0.1
31 | UUAGAGCAAUAUUACGGGAU | -3.45 ± 0.39 | -2.97 ± 0.4
32 | UCAAAGCAAUAUUACGGUCG | -0.405 ± 0.069 | -0.439 ± 0.094
33 | UAACAGCAAUAUUACGUCGC | -3.59 ± 0.38 | -2.73 ± 0.44
34 | GGGUAGCAAUAUUACGAUCC | -2.2 ± 0.37 | -1.47 ± 0.5
35 | GUACAGCAAUAUUACGAGAG | -2.62 ± 0.29 | -2.64 ± 0.25
36 | CAUCAGCAAUAUUACGCCGG | -0.415 ± 0.086 | -0.327 ± 0.11
37 | ACAGAGCAAUAUUACGAGUC | -4.65 ± 0.38 | -1.82 ± 0.27
38 | AGGAAGCAAUAUUACGCUUU | -4.15 ± 0.39 | -2.32 ± 0.27
39 | UAACAGCAAUAUUACGGUGA | -1.08 ± 0.075 | -0.658 ± 0.082
40 | UUACAGCAAUAUUACGUCGC | -2.92 ± 0.17 | -2.55 ± 0.18
41 | CGAAAGCAAUAUUACGUACA | -1.25 ± 0.14 | -1.23 ± 0.15
42 | CAGGAGCAAUAUUACGUAAC | -3.33 ± 0.26 | -2.74 ± 0.32
43 | GCCUAGCAAUAUUACGUAAU | -0.648 ± 0.071 | 0.224 ± 0.087
44 | UGUAAGCAAUAUUACGCGGA | -1.91 ± 0.26 | -1.29 ± 0.2
45 | GCAUAGCAAUAUUACGUUGA | -2.41 ± 0.12 | -1.76 ± 0.1
46 | CGUCAGCAAUAUUACGGUCU | -0.849 ± 0.079 | -0.828 ± 0.1
47 | AGGUAGCAAUAUUACGCCCC | -1.92 ± 0.044 | -1.56 ± 0.063
48 | UUAGAGCAAUAUUACGGUGC | -3.76 ± 0.28 | -2.11 ± 0.36
